Test results reported in the supplement of paper PMC10065799, “High-throughput profiling of sequence recognition by tyrosine kinases and SH2 domains using bacterial peptide display” (eLife, 2023).
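Also: 11-residue human phosphosite peptides and single-mutation variants displayed on the E. coli surface, counted by deep sequencing, each peptide's frequency after selection divided by its frequency in the unselected input library; frequency after pTyr selection over input frequency; kinase dosed for 20-30% of maximal phosphorylation in three min.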

Each sequence was assayed against EPHB2 (UniProt P29323) (assay: phosphorylation enrichment, bacterial display (enrichment ratio); higher = better substrate or ligand; peptides without Tyr show the background).
Sequence of EPHB2 (P29323 whole entry, looked up): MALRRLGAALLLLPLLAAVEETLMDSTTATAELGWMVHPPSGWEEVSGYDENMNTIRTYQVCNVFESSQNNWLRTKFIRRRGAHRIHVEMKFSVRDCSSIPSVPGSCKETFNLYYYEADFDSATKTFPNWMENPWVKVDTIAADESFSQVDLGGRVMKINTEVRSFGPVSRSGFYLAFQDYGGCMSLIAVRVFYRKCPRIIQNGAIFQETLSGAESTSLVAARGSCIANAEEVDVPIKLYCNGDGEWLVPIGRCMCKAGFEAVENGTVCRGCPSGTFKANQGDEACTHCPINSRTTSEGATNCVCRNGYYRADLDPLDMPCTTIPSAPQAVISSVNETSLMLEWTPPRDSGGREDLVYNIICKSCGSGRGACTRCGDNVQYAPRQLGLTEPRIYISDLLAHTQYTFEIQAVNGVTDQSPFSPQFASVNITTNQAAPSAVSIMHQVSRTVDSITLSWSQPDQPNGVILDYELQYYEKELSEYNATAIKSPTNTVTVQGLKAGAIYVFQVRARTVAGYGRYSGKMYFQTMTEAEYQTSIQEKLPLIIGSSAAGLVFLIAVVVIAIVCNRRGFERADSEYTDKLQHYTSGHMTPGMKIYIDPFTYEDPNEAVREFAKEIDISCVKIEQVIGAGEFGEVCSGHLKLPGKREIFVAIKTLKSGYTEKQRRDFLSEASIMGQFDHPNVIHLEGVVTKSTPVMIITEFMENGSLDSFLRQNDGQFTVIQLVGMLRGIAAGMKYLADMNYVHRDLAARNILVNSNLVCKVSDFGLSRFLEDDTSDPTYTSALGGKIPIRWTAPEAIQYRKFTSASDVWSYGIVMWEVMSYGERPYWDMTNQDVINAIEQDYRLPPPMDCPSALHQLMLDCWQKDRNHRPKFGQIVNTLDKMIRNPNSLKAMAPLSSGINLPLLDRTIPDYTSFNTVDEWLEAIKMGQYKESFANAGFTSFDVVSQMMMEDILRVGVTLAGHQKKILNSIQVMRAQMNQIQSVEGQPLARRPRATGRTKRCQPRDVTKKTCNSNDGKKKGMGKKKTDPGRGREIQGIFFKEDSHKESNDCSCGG
EVVGGYSVHNA [MLH1_Y183_R182G] was tested, and the phosphorylation enrichment was 0.314.
Work on DLFRLYICVKE [ARID1B_Y1091_V1092I] yielded a phosphorylation enrichment of 0.715.
Sequence ALHHPYGCDVE [ABL2_Y80_R78H] has a phosphorylation enrichment of 0.621.
With MSRDVYSIDYY [NTRK2_Y702_T704I] the phosphorylation enrichment was 1.73.
KSDVMYTDWKK [ORM1_Y175_V174M] gave a phosphorylation enrichment of 0.454.
Work on PRLLRYLQLDF [ASB10_Y457] yielded a phosphorylation enrichment of 0.73.
QRALLYEDALF [UNC13D_Y56_YF] gave a phosphorylation enrichment of 8.85.
IKKLIYVYLVI [JAGN1_Y42_H44Y] was tested, and the phosphorylation enrichment was 0.411.
In the case of SEHLTYLEFKS [RASGRP1_Y215], the phosphorylation enrichment is reported as 0.838.
SVCPDYDLCSV [SQSTM1_Y148] was tested, and the phosphorylation enrichment was 0.959.
ITVPAYFNDLQ [HSPA9_Y196_S200L] gave a phosphorylation enrichment of 0.495.
IAKNPYDPPGR was tested, and the phosphorylation enrichment was 0.333.
In the case of KPEKTYGLRKE [CEP43_Y267], the phosphorylation enrichment is reported as 0.409.
For ASMAKYFASGI [ACADSB_Y372_E376G_YF], the phosphorylation enrichment was 0.517.
QGCGIYKDYYR [PLA2G2D_Y82_S80G] gave a phosphorylation enrichment of 0.904.
For APQFTYAQGGQ [FLNA_Y1763_YF], the phosphorylation enrichment was 0.739.
RRSQSYIPTSG [PLEKHA2_Y185] gave a phosphorylation enrichment of 0.729.
SAEEDYKADAK [KCNT1_Y876_M877K] showed a phosphorylation enrichment of 0.502.
FSQNIYIQNRN [PKP2_Y631_YF] gave a phosphorylation enrichment of 0.425.
Sequence TRFDEYLEVTK [MAP1A_Y2217_H2214Y_YF] has a phosphorylation enrichment of 0.723.
YEREQYADRAR [RBM4_Y355] gave a phosphorylation enrichment of 0.432.
For LNWIYYKDQTG [RS1_Y166], the phosphorylation enrichment was 1.35.
With YSTDCYRVGGH [NTRK2_Y707_Y706C] the phosphorylation enrichment was 0.555.
Sequence EAESWYQTKFE [KRT75_Y342_YF] has a phosphorylation enrichment of 0.568.
Sequence NTGDYYDLYGG [PTPN11_Y63] has a phosphorylation enrichment of 14.4.
Work on VVFIKYLPEWT [PSEN1_Y240_L235V] yielded a phosphorylation enrichment of 0.532.
Work on GPGGDYAAMGA [ERBB3_Y1276] yielded a phosphorylation enrichment of 0.903.
KQLFAYKMLMA [TMC2_Y209_YF] gave a phosphorylation enrichment of 0.594.
HDRNTYEKFLE [TF_Y666_G671E_YF] showed a phosphorylation enrichment of 0.64.
Sequence LDFNEYFRDLN [HPRT1_Y198_YF] has a phosphorylation enrichment of 0.461.
PEAALYGRFTI [FYN_Y440] was tested, and the phosphorylation enrichment was 0.514.
Sequence VNTTLYEKFTF [TEK_Y1108_YF] has a phosphorylation enrichment of 0.748.
DKPENYRRLDI [VHL_Y175_V170D] was tested, and the phosphorylation enrichment was 0.412.

Each sequence was assayed against FGFR1 (UniProt P11362) in the same assay as above.
Sequence of FGFR1 (P11362 whole entry, looked up): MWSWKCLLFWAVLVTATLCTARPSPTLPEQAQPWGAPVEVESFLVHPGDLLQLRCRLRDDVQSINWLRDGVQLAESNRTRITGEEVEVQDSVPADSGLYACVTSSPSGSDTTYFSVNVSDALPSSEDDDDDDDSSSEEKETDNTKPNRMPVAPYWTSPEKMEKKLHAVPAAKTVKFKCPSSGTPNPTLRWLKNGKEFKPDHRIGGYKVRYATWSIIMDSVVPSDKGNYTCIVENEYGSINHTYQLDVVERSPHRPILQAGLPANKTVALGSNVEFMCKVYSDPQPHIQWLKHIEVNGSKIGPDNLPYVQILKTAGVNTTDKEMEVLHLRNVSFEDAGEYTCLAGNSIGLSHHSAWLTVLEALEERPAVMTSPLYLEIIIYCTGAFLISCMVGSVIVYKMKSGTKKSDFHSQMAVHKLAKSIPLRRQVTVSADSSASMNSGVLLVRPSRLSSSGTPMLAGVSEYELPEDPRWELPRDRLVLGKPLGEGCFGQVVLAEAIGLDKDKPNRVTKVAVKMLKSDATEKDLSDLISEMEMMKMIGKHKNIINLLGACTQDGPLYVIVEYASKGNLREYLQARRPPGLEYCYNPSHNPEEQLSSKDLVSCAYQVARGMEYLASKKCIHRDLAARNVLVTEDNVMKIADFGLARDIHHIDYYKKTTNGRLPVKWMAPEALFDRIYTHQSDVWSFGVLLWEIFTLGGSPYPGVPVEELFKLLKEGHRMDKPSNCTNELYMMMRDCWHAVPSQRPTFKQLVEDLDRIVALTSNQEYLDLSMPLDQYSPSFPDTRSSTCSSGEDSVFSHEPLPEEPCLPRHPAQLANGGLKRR
EVVGGYSVHNA [MLH1_Y183_R182G] was tested, and the phosphorylation enrichment was 0.339.
Work on DLFRLYICVKE [ARID1B_Y1091_V1092I] yielded a phosphorylation enrichment of 0.471.
Work on ALHHPYGCDVE [ABL2_Y80_R78H] yielded a phosphorylation enrichment of 0.441.
Work on MSRDVYSIDYY [NTRK2_Y702_T704I] yielded a phosphorylation enrichment of 4.29.
KSDVMYTDWKK [ORM1_Y175_V174M] gave a phosphorylation enrichment of 0.416.
For PRLLRYLQLDF [ASB10_Y457], the phosphorylation enrichment was 0.648.
With QRALLYEDALF [UNC13D_Y56_YF] the phosphorylation enrichment was 0.68.
Sequence IKKLIYVYLVI [JAGN1_Y42_H44Y] has a phosphorylation enrichment of 0.351.
For SEHLTYLEFKS [RASGRP1_Y215], the phosphorylation enrichment was 0.729.
Sequence SVCPDYDLCSV [SQSTM1_Y148] has a phosphorylation enrichment of 0.661.
Sequence ITVPAYFNDLQ [HSPA9_Y196_S200L] has a phosphorylation enrichment of 0.555.
For IAKNPYDPPGR, the phosphorylation enrichment was 0.405.
KPEKTYGLRKE [CEP43_Y267] was tested, and the phosphorylation enrichment was 0.344.
Sequence ASMAKYFASGI [ACADSB_Y372_E376G_YF] has a phosphorylation enrichment of 0.424.
QGCGIYKDYYR [PLA2G2D_Y82_S80G] showed a phosphorylation enrichment of 1.1.
Sequence APQFTYAQGGQ [FLNA_Y1763_YF] has a phosphorylation enrichment of 0.585.
RRSQSYIPTSG [PLEKHA2_Y185] was tested, and the phosphorylation enrichment was 0.615.
SAEEDYKADAK [KCNT1_Y876_M877K] was tested, and the phosphorylation enrichment was 0.464.
FSQNIYIQNRN [PKP2_Y631_YF] was tested, and the phosphorylation enrichment was 0.54.
Sequence TRFDEYLEVTK [MAP1A_Y2217_H2214Y_YF] has a phosphorylation enrichment of 0.949.
With YEREQYADRAR [RBM4_Y355] the phosphorylation enrichment was 0.495.
Work on LNWIYYKDQTG [RS1_Y166] yielded a phosphorylation enrichment of 1.4.
YSTDCYRVGGH [NTRK2_Y707_Y706C] showed a phosphorylation enrichment of 0.594.
In the case of EAESWYQTKFE [KRT75_Y342_YF], the phosphorylation enrichment is reported as 0.49.
For NTGDYYDLYGG [PTPN11_Y63], the phosphorylation enrichment was 14.7.
With VVFIKYLPEWT [PSEN1_Y240_L235V] the phosphorylation enrichment was 0.424.
GPGGDYAAMGA [ERBB3_Y1276] was tested, and the phosphorylation enrichment was 0.776.
KQLFAYKMLMA [TMC2_Y209_YF] gave a phosphorylation enrichment of 0.548.
HDRNTYEKFLE [TF_Y666_G671E_YF] was tested, and the phosphorylation enrichment was 0.432.
Sequence LDFNEYFRDLN [HPRT1_Y198_YF] has a phosphorylation enrichment of 0.513.
Work on PEAALYGRFTI [FYN_Y440] yielded a phosphorylation enrichment of 0.646.
With VNTTLYEKFTF [TEK_Y1108_YF] the phosphorylation enrichment was 0.456.
DKPENYRRLDI [VHL_Y175_V170D] was tested, and the phosphorylation enrichment was 0.558.
